Reference: PMC9852238 (Nature Communications, 2023)
Changes are numbered by the printed parent chain.

B1: IY-2A (antibody, V domains shown)
VH: QVQLVEWGAGLLKPSETLSLTCAVYGGSFSGYYWSWIRQPPGKGLEWIGLINHSGSTNYNPSLKSRVTISLDTSKNQFSLKLTSVTAADTAVYYCARGLGIFGVVTLSDVWGQGTTVTVSS
VL: NFMLTQPHSVSESPGKTVTISCTGSSGSIASNYVQWYQQRPGSAPTTVIYEDNQRPSGVPDRFSGSIDSSSNSASLTISGLRTEDEADYYCQSYDSGIWVFGGGTKLTVL
notes: source: ExpiCHO cells, transiently transfected, purified (rProtein A Sepharose); copies: 2 + 2
B2: FP-12A (antibody, V domains shown)
VH: EVQLVESGGGVVQPGRSLRLSCAASGFTFSSYGMHWVRQAPGKGLEWVAVISYDGSNKYYADSVKGRFTISRDNSKNTLYLQMNSLRAEDTAVYYCANGFGEYYYYAMDVWGQGTTVTVSS
VL: B1 VL with Q39R, G65A, R82K, G97S, I98N
notes: copies: 2 + 2
B3: EY-6A (antibody, V domains shown)
VH: EVQLVESGGGVVQPGRSLRLSCAASAFTFSSYDMHWVRQAPGKGLEWVAVISYDGSNKYYADSVKGRFTISRDNSKNTLYLQMNSLRAEDTAVYYCAKDGGKLWVYYFDYWGQGTTVTVSS
VL: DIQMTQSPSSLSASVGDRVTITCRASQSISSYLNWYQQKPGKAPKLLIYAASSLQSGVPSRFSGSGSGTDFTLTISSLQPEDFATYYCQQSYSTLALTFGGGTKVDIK
notes: also called mAb EY-6A; source: ExpiCHO cells, transiently transfected, purified (rProtein A Sepharose); copies: 2 + 2
B4: IS-9A (antibody, V domains shown)
VH: QVQLVQSGAEVKKPGESLRISCKGSGYSFTNYWISWVRQMPGKGLEWMGRIDPSDSYINYSPSFQGHATISADKSISTAYLQWGSLKASDTAMYYCARGRNYLDSRGRFDYWGQGTLVTVSS
VL: DIVMTQSPSSLSASVGDRVTITCQASQDISNYLNWYQQKSGKAPKLLIYDASNLETGVPSRFSGSGSGTDFTFTISSLQPEDIATYYCQQYDSLGFTFGPGTKVEIR
notes: as for B1

Legend:
[1] = target: SARS-CoV spike, ELISA antigen (SARS-CoV, strain not named (reference …, UniProt P59594)); test: ELISA; conditions: both partners purified
[2] = target: SARS-CoV-2 spike (S) protein, ELISA antigen (SARS-CoV-2, Wuhan-Hu-1 (assumed), UniProt P0DTC2); test: ELISA; conditions: both partners purified
[3] = target: T1, SARS-CoV-2 RBD (wild type), ELISA antigen (SARS-CoV-2, UniProt P0DTC2); test: ELISA; conditions: both partners purified
[4] = target: WIV1-CoV RBD-His8-SpyTag003 (Bat SARS-like coronavirus WIV1); test: ELISA; conditions: both partners purified
[5] = target: SHC014-CoV RBD-His8-SpyTag003 (Bat SARS-like coronavirus RsSHC014); test: ELISA; conditions: both partners purified
[6] = target: BM48-31-CoV RBD-His8-SpyTag003 (Bat coronavirus BM48-31); test: ELISA; conditions: both partners purified
[7] = target: T2, Rf1-CoV RBD-His8-SpyTag003 (Bat SARS-like coronavirus Rf1); test: ELISA; conditions: both partners purified
T2 construct: clade 2

[8] = target: RmYN02-CoV RBD-His8-SpyTag003 (Bat coronavirus RmYN02); test: ELISA; conditions: both partners purified
[9] = target: T3, Yunnan2011 (Yun11)-CoV RBD-His8-SpyTag003 (Bat coronavirus Cp/Yunnan2011); test: ELISA; conditions: both partners purified
T3 construct: clade 2

[10] = target: Rs4081-CoV RBD-His8-SpyTag003 (Bat SARS-like coronavirus Rs4081); test: ELISA; conditions: both partners purified
[11] = target: RaTG13-CoV RBD-His8-SpyTag003 (Bat coronavirus RaTG13); test: ELISA; conditions: both partners purified
[12] = target: pangolin17 (pang17)-CoV RBD-His8-SpyTag003 (pangolin17-CoV); test: ELISA; conditions: both partners purified
[13] = target: SARS-CoV RBD-His8-SpyTag003 (SARS-CoV (GenBank ON131087, strain not …, UniProt P59594)); test: ELISA; conditions: both partners purified
[14] = target: T1, SARS-CoV-2 RBD (wild type), ELISA …; test: cell-based or functional assay

Row | Binder | OD in ELISA at 1 µg/ml [1] | OD in ELISA at 1 µg/ml [2] | OD in ELISA at 1 µg/ml [3] | binding result [4] | binding result [5] | binding result [6] | binding result [7] | binding result [8] | binding result [9] | binding result [10] | binding result [11] | binding result [12] | binding result [13] | IC50 of neutralisation of SARS-CoV-2 (potency of IS-9A) [14]
1 | B1 | 1.78 OD | 1.8 OD | 1.87 OD | binds | binds | binds | binds | binds | binds | binds | binds | binds | – | –
2 | B2 | – | 1.76 OD | 1.79 OD | no binding (tested: 50 nM) | no binding (tested: 50 nM) | no binding (tested: 50 nM) | no binding (tested: 50 nM) | no binding (tested: 50 nM) | no binding (tested: 50 nM) | no binding (tested: 50 nM) | no binding (tested: 50 nM) | no binding (tested: 50 nM) | no binding (tested: 50 nM) | –
3 | B3 | 1.67 OD | 1.75 OD | 1.81 OD | binds | binds | binds | binds | binds | binds | binds | binds | binds | – | –
4 | B4 | 1.83 OD | 1.78 OD | 1.88 OD | binds | binds | – | – | – | – | – | binds | – | – | 0.03 µg/mL
